Results reported in patent US20230192831A1.

Key:
[1] = target: recombinant human GREM1 (hGREM1-His; C-terminal 10His tagged, R&D, #5190-GR) (human) (UniProt O60565); experiment: cell-based or functional assay
[2] = target: recombinant human GREM1 (hGREM1-His; C-terminal 10His tagged, R&D, #5190-GR) (human) (UniProt O60565); experiment: BLI Octet, captured mAb, 100 nM GREM1
[3] = target: recombinant human GREM1 (hGREM1-His; C-terminal 10His tagged, R&D, #5190-GR) (human) (UniProt O60565); experiment: BLI Octet, captured mAb, 100 nM GREM1 + 5 uM heparin
[4] = target: recombinant human GREM1 (hGREM1-His; C-terminal 10His tagged, R&D, #5190-GR) (human) (UniProt O60565); experiment: BLI Octet, captured mAb, 100 nM GREM1 without vs with 5 uM heparin

Sequence of recombinant human GREM1 (hGREM1-His; C-terminal 10His tagged, R&D, #5190-GR) (human) (O60565 other isoform, or with tags, fused parts or gaps limits assumed, form in doubt): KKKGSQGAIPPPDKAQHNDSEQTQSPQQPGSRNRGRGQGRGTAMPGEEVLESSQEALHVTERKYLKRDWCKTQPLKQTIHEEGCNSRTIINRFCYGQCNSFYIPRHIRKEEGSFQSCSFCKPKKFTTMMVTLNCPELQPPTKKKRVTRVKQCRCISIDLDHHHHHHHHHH

IC50 [M], W-20-17/BRE-luc luciferase bioassay, 100 pM hBMP4 and 10 nM hGREM1-His [1]: 5.4e-10 M
hGREM1-His Inhibition IC50, M; W-20-17 cell differentiation assay (alkaline phosphatase) [1]: 3.1 nM
Binding Signal with 30 sec Association (nm) [2]: 0.2 nm
Binding Signal with 300 sec Association (nm) [2]: 0.39 nm
Binding Signal with 30 sec Association (nm) [3]: 0.05 nm
Binding Signal with 300 sec Association (nm) [3]: 0.33 nm
Reduction in Signal from Heparin at 30 sec [4]: 0.15 nm
Reduction in Signal from Heparin at 300 sec [4]: 0.06 nm
B1: H4H6270P (antibody, human IgG4, V domains shown)
VH: QVQLVESGGDVVQPGRSLRLSCAASGFTFSSYGMHWVRQAPGKGLEWVAIIWNDGSNKYYTDSVKGRFTISRDNSKNTLYLQMNGLRAEDTAIYYCARDQDQFDYWGQGTLVTVSS
VL: EIVMTQSPATLSVSPGERATLSCRASQSISTNLAWYRQKPGQAPRLLIYDASTRATGIPARFSGSGSGTDFTLTISSLQSEDFAVYYCQQYSNWPPYTFGQGTKLEIK
